The target of this assay is mouse CTLA4 (mouse) (UniProt P09793). The assay is described as follows: flow cytometry on CHO-mCTLA4 cells; SSC vs Anti-Human-IgGFc-FITC. A general note: Flow cytometry measures light scatter and fluorescence of single cells or particles in a stream.
mouse CTLA4 (mouse), sequence (P09793 36-223 S182T limits assumed): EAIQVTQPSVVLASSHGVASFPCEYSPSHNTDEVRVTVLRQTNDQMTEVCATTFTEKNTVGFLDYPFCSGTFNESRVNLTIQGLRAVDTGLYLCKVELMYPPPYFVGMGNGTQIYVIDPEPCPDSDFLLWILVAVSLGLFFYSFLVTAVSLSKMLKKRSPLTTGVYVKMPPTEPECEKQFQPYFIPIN

NC showed a % cells in the FITC-positive gate of 0.133%.

(Values after patent publication US20240343806A1.)
